Drawing on US20200216532A1, this text covers % reduction, ECLU confirmatory assay and Binding (RU) for 14 molecules.

In experiment [1] the target is antibodies against ISV in serum sample IHUS#B09032311A20. Put plainly: ECL drug-displacement assay vs labelled SEQ ID NO:1.
For experiment [2], the target named is antibodies against ISV in serum sample IHUS#B09032311A3. The experiment is described as above.
Experiment [3] addresses antibodies against ISV in serum sample IHUS#B09032311A1. The experiment is described as above.
Experiment [4] addresses affinity purified antibody IHuP#002-001-ABL-08. Put plainly: bridging/competition ADA assay, 10 ug/ml ISV vs labelled ISV.
Experiment [5] concerns the target analytical polyclonal antibody generated in Example 2. Description: SPR Biacore T100, polyclonal immobilized, 500 nM ISV.

B1: SEQ ID NO: 23, Wildtype VHH (VHH)
VHH: EVQLVESGGGLVQAGGSLRLSCAASGRTFNNYAMGWFRRAPGKEREFVAAITRSGVRSGVSAIYGDSVKDRFTISRDNAKNTLYLQMNSLKPEDTAVYTCAASAIGSGALRRFEYDYSGQGTQVTVSS
B1: the % reduction in experiment [1] turned out to be 53%; in experiment [2] it was 20%; in experiment [3] it was 4%; in experiment [4], 7.3%. Also, the ECLU confirmatory assay came to 8680 ECLU in experiment [1], 1780 ECLU in experiment [2], 60 ECLU in experiment [3] and 2710 ECLU in experiment [4].

B2: SEQ ID NO: 25, Wildtype VHH + K83R (VHH)
VHH: EVQLVESGGGLVQAGGSLRLSCAASGRTFNNYAMGWFRRAPGKEREFVAAITRSGVRSGVSAIYGDSVKDRFTISRDNAKNTLYLQMNSLRPEDTAVYTCAASAIGSGALRRFEYDYSGQGTQVTVSS
As to B2, the % reduction in experiment [1] was 63%; in experiment [2], 37%; in experiment [3], 1%; in experiment [4], 15.7%. The ECLU confirmatory assay in experiment [1] amounted to 6910 ECLU; in experiment [2], 1400 ECLU; in experiment [3] it was 62 ECLU; in experiment [4] it was 2460 ECLU.

B3: SEQ ID NO: 29, Wildtype VHH + A14P + R39Q + K83R + T91Y + Q108L + 1 additional A at C-terminus (A114) (VHH)
VHH: EVQLVESGGGLVQPGGSLRLSCAASGRTFNNYAMGWFRQAPGKEREFVAAITRSGVRSGVSAIYGDSVKDRFTISRDNAKNTLYLQMNSLRPEDTAVYYCAASAIGSGALRRFEYDYSGQGTLVTVSS
Regarding B3, the % reduction in experiment [2] is 18%. Also, in experiment [4], the % reduction was found to be 58.6% and the ECLU confirmatory assay worked out at 1210 ECLU.

B4: SEQ ID NO: 24, Wildtype VHH + A14P (VHH)
VHH: EVQLVESGGGLVQPGGSLRLSCAASGRTFNNYAMGWFRRAPGKEREFVAAITRSGVRSGVSAIYGDSVKDRFTISRDNAKNTLYLQMNSLKPEDTAVYTCAASAIGSGALRRFEYDYSGQGTQVTVSS
Regarding B4, the % reduction in experiment [1] was found to be 96%; in experiment [2] it was 91%; in experiment [3], 10%; in experiment [4], 90.8%. The ECLU confirmatory assay came to 668 ECLU in experiment [1], 205 ECLU in experiment [2], 56 ECLU in experiment [3] and 268 ECLU in experiment [4].

B5: SEQ ID NO: 28, Wildtype VHH + A14P + R39Q + K83R + T91Y + Q108L (VHH)
VHH: EVQLVESGGGLVQPGGSLRLSCAASGRTFNNYAMGWFRQAPGKEREFVAAITRSGVRSGVSAIYGDSVKDRFTISRDNAKNTLYLQMNSLRPEDTAVYYCAASAIGSGALRRFEYDYSGQGTLVTVSS
On to B5, for which the % reduction in experiment [2] was determined as 90%. In experiment [4], the % reduction came to 91.4% and the ECLU confirmatory assay was 251 ECLU.

B6: SEQ ID NO: 27, Wildtype VHH + A14P + K83R + Q108L (VHH)
VHH: EVQLVESGGGLVQPGGSLRLSCAASGRTFNNYAMGWFRRAPGKEREFVAAITRSGVRSGVSAIYGDSVKDRFTISRDNAKNTLYLQMNSLRPEDTAVYTCAASAIGSGALRRFEYDYSGQGTLVTVSS
As for B6, in experiment [4], the % reduction was determined as 89.1% and the ECLU confirmatory assay turned out to be 319 ECLU.

B7: SEQ ID NO: 26, Wildtype VHH + Q108L (VHH)
VHH: EVQLVESGGGLVQAGGSLRLSCAASGRTFNNYAMGWFRRAPGKEREFVAAITRSGVRSGVSAIYGDSVKDRFTISRDNAKNTLYLQMNSLKPEDTAVYTCAASAIGSGALRRFEYDYSGQGTLVTVSS
Consider B7, for which the % reduction in experiment [1] was determined as 62%; in experiment [2], 31%; in experiment [3] it was 5%; in experiment [4], 13.2%. Further, the ECLU confirmatory assay in experiment [1] stood at 6990 ECLU; in experiment [2] it was 1530 ECLU; in experiment [3], 59 ECLU; in experiment [4] it was 2530 ECLU.

B8: SEQ ID NO: 30, Wildtype VHH + A14P + R39Q + K83R + T91Y + Q108L + 3 A's at C-terminus (A114 + A115 + A116) (VHH)
VHH: EVQLVESGGGLVQPGGSLRLSCAASGRTFNNYAMGWFRQAPGKEREFVAAITRSGVRSGVSAIYGDSVKDRFTISRDNAKNTLYLQMNSLRPEDTAVYYCAASAIGSGALRRFEYDYSGQGTLVTVSS
In the case of B8, the % reduction in experiment [2] was 13%. Moreover, in experiment [4], the % reduction was -13.1% and the ECLU confirmatory assay worked out at 3300 ECLU.

B9: NB 3.12 (VHH)
VHH: EVQLVESGGGLVQAGGSLRLSCAASRSIGRLDRMGWYRHRPGEPRELVATITGGSSINYGDSVKGRFTISIDNSKNTVYLQMNSLRPEDTAVYYCNFNKYVTSRDTWGQGTQVTVSS
In experiment [5], B9 had a Binding (RU) at end of injection of 86 RU.

B10: NB 3.13 (VHH)
VHH: EVQLVESGGGLVQPGGSLRLSCAASRSIGRLDRMGWYRHRPGEPRELVATITGGSSINYGDSVKGRFTISIDNSKNTVYLQMNSLRPEDTAVYYCNFNKYVTSRDTWGQGTQVTVSS
B10: the Binding (RU) at end of injection in experiment [5] was found to be 90 RU.

B11: NB 3.10 (VHH)
VHH: EVQLVESGGGLVQAGGSLRLSCAASRSIGRLDRMGWYRHRPGEPRELVATITGGSSINYGDSVKGRFTISIDNSKNTVYLQMNSLRPEDTAVYYCNFNKYVTSRDTWGQGTLVTVSS
Turning to B11, the Binding (RU) at end of injection in experiment [5] is 91 RU.

B12: NB 3.11 (VHH)
VHH: EVQLVESGGGLVQPGGSLRLSCAASRSIGRLDRMGWYRHRPGEPRELVATITGGSSINYGDSVKGRFTISIDNSKNTVYLQMNSLKPEDTAVYYCNFNKYVTSRDTWGQGTLVTVSS
With B12, in experiment [5], the Binding (RU) at end of injection was found to be 88 RU.

B13: NB 3.15 (VHH)
VHH: EVQLVESGGGSVQPGGSLRLSCAASRSIGRLDRMGWYRHRPGEPRELVATITGGSSINYGDSVKGRFTISIDNSKNTVYLQMNSLRPEDTAVYYCNFNKYVTSRDTWGQGTLVTVSS
Molecule B13 showed a Binding (RU) at end of injection in experiment [5] of 22 RU.

B14: NB 3.14 (VHH)
VHH: EVQLVESGGGLVQPGGSLRLSCAASRSIGRLDRMGWYRHRPGEPRELVATITGGSSINYGDSVKGRFTISIDNSKNTVYLQMNSLRPEDTAVYYCNFNKYVTSRDTWGQGTLVQVSS
For the molecule B14, the Binding (RU) at end of injection in experiment [5] is 79 RU.
